These are literature values, as cited in publication PMC9066409.

Where two headings read alike, the source gives them in different places.

The target in data set [1] is FGFR1 (Homo sapiens) (UniProt P11362).
For data set [2] the target is unchanged. This is another data set of the same source.

Chain of UniProt P11362 (P11362 22-822): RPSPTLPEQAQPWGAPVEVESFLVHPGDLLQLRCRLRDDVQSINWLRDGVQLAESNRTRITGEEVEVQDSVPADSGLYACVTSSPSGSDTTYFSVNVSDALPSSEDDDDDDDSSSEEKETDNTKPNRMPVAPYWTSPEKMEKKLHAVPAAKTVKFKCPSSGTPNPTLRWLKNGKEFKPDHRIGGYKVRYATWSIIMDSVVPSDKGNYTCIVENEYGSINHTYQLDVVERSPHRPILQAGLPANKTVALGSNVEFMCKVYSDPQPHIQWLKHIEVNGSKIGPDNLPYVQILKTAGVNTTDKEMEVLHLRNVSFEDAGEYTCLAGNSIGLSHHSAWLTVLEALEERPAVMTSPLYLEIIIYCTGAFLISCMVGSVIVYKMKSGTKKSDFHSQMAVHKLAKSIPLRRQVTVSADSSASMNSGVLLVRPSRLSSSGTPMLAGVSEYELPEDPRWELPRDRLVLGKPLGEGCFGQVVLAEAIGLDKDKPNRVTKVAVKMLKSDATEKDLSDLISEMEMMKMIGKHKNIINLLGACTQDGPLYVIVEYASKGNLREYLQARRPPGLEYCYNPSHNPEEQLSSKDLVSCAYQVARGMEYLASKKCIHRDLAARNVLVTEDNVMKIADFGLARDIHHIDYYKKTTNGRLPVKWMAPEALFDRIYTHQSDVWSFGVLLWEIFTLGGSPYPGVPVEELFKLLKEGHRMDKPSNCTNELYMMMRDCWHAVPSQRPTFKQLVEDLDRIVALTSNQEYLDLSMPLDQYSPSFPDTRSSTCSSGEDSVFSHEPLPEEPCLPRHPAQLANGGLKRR

As usually defined, the Kd is a measure of binding affinity in units of concentration. As for FGF1 (from UniProt P05230), the Kd in the data set with FGFR1 (Homo sapiens) [1] was 136 nM.

On to FGF2 (from UniProt P09038), for which, in the data set with FGFR1 (Homo sapiens) [2], the Kd was 62 nM.
